B1: ZBTB22 (parent)
chain: HTGLKPYECGVCAKKFMWRDSFMR
B2: TOR1AIP2 (parent)
chain: DGAGRTWQDSDTVKLLVDLELSYG
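Also: lentivirally expressed fusions sorted by FACS into six bins by GFP to DsRed ratio, PSI derived from sequencing read proportions per bin multiplied by bin number.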

One data set covers variants of B1. Put plainly: protein stability index of a GFP-peptide fusion (GPS, HEK-293T) (PSI 1-6); higher = more stable. To be noted: c terminus: a fixed tail appended.
Take DTGLKPYECGVCAKKFMWRDSFMR [H1D]: the protein stability index was determined as 1.45.
The same measure, in the same setting: the value for ITGLKPYECGVCAKKFMWRDSFMR [H1I] was 2.85; that for STGLKPYECGVCAKKFMWRDSFMR [H1S] was 1.92.
With ATGLKPYECGVCAKKFMWRDSFMR [H1A], the protein stability index worked out at 3.04.
Same read-out and setting: the value for TTGLKPYECGVCAKKFMWRDSFMR [H1T] was 2.24; that for CTGLKPYECGVCAKKFMWRDSFMR [H1C] was 1.3.
For FTGLKPYECGVCAKKFMWRDSFMR [H1F], the protein stability index is 1.76.
Consider QTGLKPYECGVCAKKFMWRDSFMR [H1Q], for which the protein stability index was determined as 2.71.
As for HTGLLPYECGVCAKKFMWRDSFMR [K5L], the protein stability index came out at 1.92.
For HTGLIPYECGVCAKKFMWRDSFMR [K5I], the protein stability index turned out to be 2.05.
Take HTGLSPYECGVCAKKFMWRDSFMR [K5S]: the protein stability index is 1.96.
Same read-out and setting: the value for HTGLCPYECGVCAKKFMWRDSFMR [K5C] was 2.43.
With HTGLRPYECGVCAKKFMWRDSFMR [K5R], the protein stability index came to 2.38.
Turning to HTGLDPYECGVCAKKFMWRDSFMR [K5D], the protein stability index turned out to be 3.82.
On to HTGLMPYECGVCAKKFMWRDSFMR [K5M], for which the protein stability index turned out to be 2.73.
For the variant HTGLPPYECGVCAKKFMWRDSFMR [K5P], the protein stability index was 1.62.
Take HTGLFPYECGVCAKKFMWRDSFMR [K5F]: the protein stability index was 2.66.
On to HTGLNPYECGVCAKKFMWRDSFMR [K5N], for which the protein stability index amounted to 1.56.
HTVLKPYECGVCAKKFMWRDSFMR [G3V]: the protein stability index amounted to 3.07.
Consider HTCLKPYECGVCAKKFMWRDSFMR [G3C], for which the protein stability index is 2.47.
As for HTKLKPYECGVCAKKFMWRDSFMR [G3K], the protein stability index is 2.3.
Turning to HTTLKPYECGVCAKKFMWRDSFMR [G3T], the protein stability index turned out to be 2.23.
For HTSLKPYECGVCAKKFMWRDSFMR [G3S], the protein stability index was found to be 2.62.
Turning to HTLLKPYECGVCAKKFMWRDSFMR [G3L], the protein stability index stood at 1.69.
Same read-out and setting: the value for HTPLKPYECGVCAKKFMWRDSFMR [G3P] was 4.19; that for HTQLKPYECGVCAKKFMWRDSFMR [G3Q] was 1.52.
As to HTILKPYECGVCAKKFMWRDSFMR [G3I], the protein stability index worked out at 2.91.
Turning to HTNLKPYECGVCAKKFMWRDSFMR [G3N], the protein stability index was 3.32.
With HTELKPYECGVCAKKFMWRDSFMR [G3E], the protein stability index was found to be 3.34.
As for HTDLKPYECGVCAKKFMWRDSFMR [G3D], the protein stability index was found to be 1.36.
For HTALKPYECGVCAKKFMWRDSFMR [G3A], the protein stability index was found to be 2.15.
Turning to HNGLKPYECGVCAKKFMWRDSFMR [T2N], the protein stability index was found to be 2.28.
Regarding HGGLKPYECGVCAKKFMWRDSFMR [T2G], the protein stability index worked out at 1.74.
HDGLKPYECGVCAKKFMWRDSFMR [T2D]: the protein stability index was 3.09.
Take HCGLKPYECGVCAKKFMWRDSFMR [T2C]: the protein stability index was found to be 3.8.
As to HPGLKPYECGVCAKKFMWRDSFMR [T2P], the protein stability index stood at 2.72.
Take HMGLKPYECGVCAKKFMWRDSFMR [T2M]: the protein stability index stood at 1.17.
Still for that read-out and setting: then HEGLKPYECGVCAKKFMWRDSFMR [T2E], with 2.67.
With HFGLKPYECGVCAKKFMWRDSFMR [T2F], the protein stability index came to 4.25.
Consider HRGLKPYECGVCAKKFMWRDSFMR [T2R], for which the protein stability index was found to be 2.38.
With HKGLKPYECGVCAKKFMWRDSFMR [T2K], the protein stability index was found to be 2.14.
Turning to HYGLKPYECGVCAKKFMWRDSFMR [T2Y], the protein stability index is 2.79.
Regarding HTGLKAYECGVCAKKFMWRDSFMR [P6A], the protein stability index came out at 3.44.
HTGLKDYECGVCAKKFMWRDSFMR [P6D]: the protein stability index amounted to 1.82.
For the variant HTGLKKYECGVCAKKFMWRDSFMR [P6K], the protein stability index was determined as 3.36.
The same measure, in the same setting: then HTGLKLYECGVCAKKFMWRDSFMR [P6L], with 2.99.
For HTGLKFYECGVCAKKFMWRDSFMR [P6F], the protein stability index stood at 2.28.
HTGLKNYECGVCAKKFMWRDSFMR [P6N]: the protein stability index came out at 1.65.
Same read-out and setting: then HTGLKIYECGVCAKKFMWRDSFMR [P6I], with 1.45; and HTGLKEYECGVCAKKFMWRDSFMR [P6E], with 2.97.
On to HTGLKQYECGVCAKKFMWRDSFMR [P6Q], for which the protein stability index was found to be 2.26.
Regarding HTGLKMYECGVCAKKFMWRDSFMR [P6M], the protein stability index was 2.6.
For the variant HTGLKRYECGVCAKKFMWRDSFMR [P6R], the protein stability index stood at 2.1.
As to HTGLKSYECGVCAKKFMWRDSFMR [P6S], the protein stability index was determined as 2.62.
On to HTGLKHYECGVCAKKFMWRDSFMR [P6H], for which the protein stability index was found to be 2.3.
The same measure, in the same setting: the value for HTGFKPYECGVCAKKFMWRDSFMR [L4F] was 2.27; that for HTGCKPYECGVCAKKFMWRDSFMR [L4C] was 1.64.
As for HTGIKPYECGVCAKKFMWRDSFMR [L4I], the protein stability index was 2.75.
Take HTGMKPYECGVCAKKFMWRDSFMR [L4M]: the protein stability index worked out at 1.93.
For HTGEKPYECGVCAKKFMWRDSFMR [L4E], the protein stability index is 1.86.
Turning to HTGVKPYECGVCAKKFMWRDSFMR [L4V], the protein stability index was determined as 3.58.
On to HTGGKPYECGVCAKKFMWRDSFMR [L4G], for which the protein stability index amounted to 1.92.
For the variant HTGDKPYECGVCAKKFMWRDSFMR [L4D], the protein stability index was 2.32.
On to HTGYKPYECGVCAKKFMWRDSFMR [L4Y], for which the protein stability index came to 3.37.
On to HTGNKPYECGVCAKKFMWRDSFMR [L4N], for which the protein stability index came out at 1.37.
For HTGHKPYECGVCAKKFMWRDSFMR [L4H], the protein stability index was 2.07.
In the case of HTGAKPYECGVCAKKFMWRDSFMR [L4A], the protein stability index worked out at 1.62.
Turning to HTGSKPYECGVCAKKFMWRDSFMR [L4S], the protein stability index is 4.46.

Variants of B2 are the subject of the next data set. Described as above. As to conditions: c terminus: a fixed tail appended.
In the case of DGAGRTWQDSDTVKLLVCLELSYG [D18C], the protein stability index was 2.22.
As for DGAGRTWQDSDTVKLLVHLELSYG [D18H], the protein stability index was 1.08.
Regarding DGAGRTWQDSDTVKLLVALELSYG [D18A], the protein stability index amounted to 4.
Take DGAGRTWQDSDTVKLLVNLELSYG [D18N]: the protein stability index amounted to 1.8.
On the same count and under the same terms, then DGAGRTWQDSDTVKLLVPLELSYG [D18P], with 3.1; and DGAGRTWQDSDTVKLLVILELSYG [D18I], with 4.08.
Consider DGAGRTWQDSDTVKLLVSLELSYG [D18S], for which the protein stability index worked out at 1.52.
For DGAGRTWQDSDTVKLLVMLELSYG [D18M], the protein stability index came to 1.36.
Same read-out and setting: the value for DGAGRTWQDSDTVKLLVKLELSYG [D18K] was 1.98.
Regarding DGAGRTWQDSDTVKLLVDLFLSYG [E20F], the protein stability index is 2.34.
For the variant DGAGRTWQDSDTVKLLVDLSLSYG [E20S], the protein stability index came to 1.75.
With DGAGRTWQDSDTVKLLVDLGLSYG [E20G], the protein stability index was 2.13.
DGAGRTWQDSDTVKLLVDLWLSYG [E20W]: the protein stability index amounted to 2.81.
Still for that read-out and setting: then DGAGRTWQDSDTVKLLVDLHLSYG [E20H], with 1.26; and DGAGRTWQDSDTVKLLVDLKLSYG [E20K], with 1.93.
On the same count and under the same terms, the value for DGAGRTWQDSDTVKLLVDLLLSYG [E20L] was 2.12.
Consider DGAGRTWQDSDTVKLLVDLPLSYG [E20P], for which the protein stability index came out at 3.09.
On the same count and under the same terms, the value for DGAGRTWQDSDTVKLLVDLYLSYG [E20Y] was 1.59; that for DGAGRTWQDSDTVKLLVDLMLSYG [E20M] was 1.68.
DGAGRTWQDSDTVKLLVDLTLSYG [E20T]: the protein stability index is 1.48.
Take DGAGRTWQDSDTVKLLVDLRLSYG [E20R]: the protein stability index was 1.61.
In the case of DGAGRTWQDSDTVKLLVDLNLSYG [E20N], the protein stability index was found to be 2.08.
DGAGRTWQDSDTVKLLVDLDLSYG [E20D]: the protein stability index is 1.56.
For the variant DGAGRTWQDSDTVKLLVDLQLSYG [E20Q], the protein stability index amounted to 2.23.
Same read-out and setting: then DGAGRTWQDSDTVKLLVDLELHYG [S22H], with 1.7; and DGAGRTWQDSDTVKLLVDLELNYG [S22N], with 3.21.

Values taken from the supplement of paper PMC10567573.
